Biological target: HLA-A*02:01
Test: IEDB peptide-MHC binding, cellular MHC/competitive/fluorescence; ≥ and ≤ were set here for values at or beyond the usual limits of such assays
Conditions: source organism: Human herpesvirus 5 strain AD169

Sequence	IC50
ALFFFDIDL	2 µM
DIYRIFAEL	12 µM
GLSISGNLL	16 µM
ILARNLVPMV	1 µM
LLQTGIHVRV	5 µM
MLNIPSINV	2.5 µM
NLLMNGQQI	5 µM
RLLQTGIHV	2 µM
SIYVYALPL	5 µM
VLCPKNMII	12 µM
YLESFCEDV	16 µM

Source: the Immune Epitope Database (IEDB)
